Measurements as given in ChEMBL document CHEMBL1143427, “Interactions of ceftobiprole with beta-lactamases from molecular classes A to D” (Antimicrob Agents Chemother, 2007).

Legend:
[1] = substrate: Nc1nc(/C(=N/O)C(=O)N[C@@H]2C(=O)N3C(C(=O)O)=C(/C=C4\CCN([C@@H]5CCNC5)C4=O)CS[C@H]23)ns1; conditions: Escherichia coli
[2] = substrate: CO/N=C(\C(=O)N[C@@H]1C(=O)N2C(C(=O)[O-])=C(C[N+]3(C)CCCC3)CS[C@H]12)c1csc(N)n1; conditions: Escherichia coli
[3] = substrate: O=C(Cc1cccs1)N[C@@H]1C(=O)N2C(C(=O)[O-])=C(C[n+]3ccccc3)CS[C@H]12; conditions: Escherichia coli
[4] = substrate: CO/N=C(\C(=O)N[C@@H]1C(=O)N2C(C(=O)O)=C(COC(C)=O)CS[C@H]12)c1csc(N)n1; conditions: Escherichia coli
[5] = substrate: CC1(C)S[C@@H]2[C@H](NC(=O)Cc3ccccc3)C(=O)N2[C@H]1C(=O)O; conditions: Escherichia coli
[6] = substrate: CC(C)(O/N=C(\C(=O)N[C@@H]1C(=O)N2C(C(=O)[O-])=C(C[n+]3ccccc3)CS[C@H]12)c1csc(N)n1)C(=O)O; conditions: Escherichia coli
[7] = substrate: Nc1nc(/C(=N/O)C(=O)N[C@@H]2C(=O)N3C(C(=O)O)=C(/C=C4\CCN([C@@H]5CCNC5)C4=O)CS[C@H]23)ns1; assay: (§1) Activity of Escherichia coli CTX-M-15 assessed as drug hydrolysis by spectrophotometry
[8] = substrate: CO/N=C(\C(=O)N[C@@H]1C(=O)N2C(C(=O)[O-])=C(C[N+]3(C)CCCC3)CS[C@H]12)c1csc(N)n1; assay: as §1
[9] = substrate: O=C(Cc1cccs1)N[C@@H]1C(=O)N2C(C(=O)[O-])=C(C[n+]3ccccc3)CS[C@H]12; assay: as §1
[10] = substrate: CO/N=C(\C(=O)N[C@@H]1C(=O)N2C(C(=O)O)=C(COC(C)=O)CS[C@H]12)c1csc(N)n1; assay: as §1
[11] = substrate: CC1(C)S[C@@H]2[C@H](NC(=O)Cc3ccccc3)C(=O)N2[C@H]1C(=O)O; assay: as §1
[12] = substrate: CC(C)(O/N=C(\C(=O)N[C@@H]1C(=O)N2C(C(=O)[O-])=C(C[n+]3ccccc3)CS[C@H]12)c1csc(N)n1)C(=O)O; assay: as §1
[13] = substrate: Nc1nc(/C(=N/O)C(=O)N[C@@H]2C(=O)N3C(C(=O)O)=C(/C=C4\CCN([C@@H]5CCNC5)C4=O)CS[C@H]23)ns1; assay: (§2) Ratio of Kcat to Km of Providencia stuartii AmpC assessed as drug hydrolysis by spectrophotometry
[14] = substrate: CO/N=C(\C(=O)N[C@@H]1C(=O)N2C(C(=O)[O-])=C(C[N+]3(C)CCCC3)CS[C@H]12)c1csc(N)n1; assay: as §2
[15] = substrate: O=C(Cc1cccs1)N[C@@H]1C(=O)N2C(C(=O)[O-])=C(C[n+]3ccccc3)CS[C@H]12; assay: as §2
[16] = substrate: CC1(C)S[C@@H]2[C@H](NC(=O)Cc3ccccc3)C(=O)N2[C@H]1C(=O)O; assay: as §2
[17] = substrate: CC(C)(O/N=C(\C(=O)N[C@@H]1C(=O)N2C(C(=O)[O-])=C(C[n+]3ccccc3)CS[C@H]12)c1csc(N)n1)C(=O)O; assay: as §2
[18] = substrate: Nc1nc(/C(=N/O)C(=O)N[C@@H]2C(=O)N3C(C(=O)O)=C(/C=C4\CCN([C@@H]5CCNC5)C4=O)CS[C@H]23)ns1; assay: (§3) Activity of Providencia stuartii AmpC assessed as drug hydrolysis by spectrophotometry
[19] = substrate: CO/N=C(\C(=O)N[C@@H]1C(=O)N2C(C(=O)[O-])=C(C[N+]3(C)CCCC3)CS[C@H]12)c1csc(N)n1; assay: as §3
[20] = substrate: O=C(Cc1cccs1)N[C@@H]1C(=O)N2C(C(=O)[O-])=C(C[n+]3ccccc3)CS[C@H]12; assay: as §3
[21] = substrate: CC1(C)S[C@@H]2[C@H](NC(=O)Cc3ccccc3)C(=O)N2[C@H]1C(=O)O; assay: as §3
[22] = substrate: CC(C)(O/N=C(\C(=O)N[C@@H]1C(=O)N2C(C(=O)[O-])=C(C[n+]3ccccc3)CS[C@H]12)c1csc(N)n1)C(=O)O; assay: as §3
[23] = substrate: Nc1nc(/C(=N/O)C(=O)N[C@@H]2C(=O)N3C(C(=O)O)=C(/C=C4\CCN([C@@H]5CCNC5)C4=O)CS[C@H]23)ns1; conditions: Escherichia coli; remark: listed apart in the source
[24] = substrate: CO/N=C(\C(=O)N[C@@H]1C(=O)N2C(C(=O)[O-])=C(C[N+]3(C)CCCC3)CS[C@H]12)c1csc(N)n1; conditions: Escherichia coli; remark: listed apart in the source
[25] = substrate: O=C(Cc1cccs1)N[C@@H]1C(=O)N2C(C(=O)[O-])=C(C[n+]3ccccc3)CS[C@H]12; conditions: Escherichia coli; remark: listed apart in the source
[26] = substrate: CC1(C)S[C@@H]2[C@H](NC(=O)Cc3ccccc3)C(=O)N2[C@H]1C(=O)O; conditions: Escherichia coli; remark: listed apart in the source
[27] = substrate: CC(C)(O/N=C(\C(=O)N[C@@H]1C(=O)N2C(C(=O)[O-])=C(C[n+]3ccccc3)CS[C@H]12)c1csc(N)n1)C(=O)O; conditions: Escherichia coli; remark: listed apart in the source
[28] = substrate: Nc1nc(/C(=N/O)C(=O)N[C@@H]2C(=O)N3C(C(=O)O)=C(/C=C4\CCN([C@@H]5CCNC5)C4=O)CS[C@H]23)ns1; conditions: Escherichia coli; remark: listed apart in the source
[29] = substrate: CO/N=C(\C(=O)N[C@@H]1C(=O)N2C(C(=O)[O-])=C(C[N+]3(C)CCCC3)CS[C@H]12)c1csc(N)n1; conditions: Escherichia coli; remark: listed apart in the source
[30] = substrate: O=C(Cc1cccs1)N[C@@H]1C(=O)N2C(C(=O)[O-])=C(C[n+]3ccccc3)CS[C@H]12; conditions: Escherichia coli; remark: listed apart in the source
[31] = substrate: CC1(C)S[C@@H]2[C@H](NC(=O)Cc3ccccc3)C(=O)N2[C@H]1C(=O)O; conditions: Escherichia coli; remark: listed apart in the source
[32] = substrate: CC(C)(O/N=C(\C(=O)N[C@@H]1C(=O)N2C(C(=O)[O-])=C(C[n+]3ccccc3)CS[C@H]12)c1csc(N)n1)C(=O)O; conditions: Escherichia coli; remark: listed apart in the source
[33] = substrate: Nc1nc(/C(=N/O)C(=O)N[C@@H]2C(=O)N3C(C(=O)O)=C(/C=C4\CCN([C@@H]5CCNC5)C4=O)CS[C@H]23)ns1; assay: (§4) Ratio of Kcat to Km of Klebsiella oxytoca beta-lactamase K1 assessed as drug hydrolysis by spectrophotometry
[34] = substrate: CO/N=C(\C(=O)N[C@@H]1C(=O)N2C(C(=O)[O-])=C(C[N+]3(C)CCCC3)CS[C@H]12)c1csc(N)n1; assay: as §4
[35] = substrate: O=C(Cc1cccs1)N[C@@H]1C(=O)N2C(C(=O)[O-])=C(C[n+]3ccccc3)CS[C@H]12; assay: as §4
[36] = substrate: CO/N=C(\C(=O)N[C@@H]1C(=O)N2C(C(=O)O)=C(COC(C)=O)CS[C@H]12)c1csc(N)n1; assay: as §4
[37] = substrate: CC1(C)S[C@@H]2[C@H](NC(=O)Cc3ccccc3)C(=O)N2[C@H]1C(=O)O; assay: as §4
[38] = substrate: CC(C)(O/N=C(\C(=O)N[C@@H]1C(=O)N2C(C(=O)[O-])=C(C[n+]3ccccc3)CS[C@H]12)c1csc(N)n1)C(=O)O; assay: as §4
[39] = substrate: Nc1nc(/C(=N/O)C(=O)N[C@@H]2C(=O)N3C(C(=O)O)=C(/C=C4\CCN([C@@H]5CCNC5)C4=O)CS[C@H]23)ns1; assay: (§5) Activity of Klebsiella oxytoca beta-lactamase K1assessed as drug hydrolysis by spectrophotometry
[40] = substrate: CO/N=C(\C(=O)N[C@@H]1C(=O)N2C(C(=O)[O-])=C(C[N+]3(C)CCCC3)CS[C@H]12)c1csc(N)n1; assay: as §5
[41] = substrate: O=C(Cc1cccs1)N[C@@H]1C(=O)N2C(C(=O)[O-])=C(C[n+]3ccccc3)CS[C@H]12; assay: as §5
[42] = substrate: CO/N=C(\C(=O)N[C@@H]1C(=O)N2C(C(=O)O)=C(COC(C)=O)CS[C@H]12)c1csc(N)n1; assay: as §5
[43] = substrate: CC1(C)S[C@@H]2[C@H](NC(=O)Cc3ccccc3)C(=O)N2[C@H]1C(=O)O; assay: as §5
[44] = substrate: CC(C)(O/N=C(\C(=O)N[C@@H]1C(=O)N2C(C(=O)[O-])=C(C[n+]3ccccc3)CS[C@H]12)c1csc(N)n1)C(=O)O; assay: as §5

B1: Beta-lactamase CTX-M (Escherichia coli), Q9EXV5 (protein)
chain: MVKKSLRQFTLMATATVTLLLGSVPLYAQTADVQQKLAELERQSGGRLGVALINTADNSQILYRADERFAMCSTSKVMAAAAVLKKSESEPNLLNQRVEIKKSDLVNYNPIAEKHVNGTMSLAELSAAALQYSDNVAMNKLIAHVGGPASVTAFARQLGDETFRLDRTEPTLNTAIPGDPRDTTSPRAMAQTLRNLTLGKALGDSQRAQLVTWMKGNTTGAASIQAGLPASWVVGDKTGSGGYGTTNDIAVIWPKDRAPLILVTYFTQPQPKAESRRDVLASAAKIVTDGL
[1]
  kcat/Km: 1.4e+07 M⁻¹ s⁻¹
[2]
  kcat/Km: 250000 M⁻¹ s⁻¹
[3]
  kcat/Km: 4.9e+06 M⁻¹ s⁻¹
[4]
  kcat/Km: 6.9e+06 M⁻¹ s⁻¹
[5]
  kcat/Km: 5.4e+06 M⁻¹ s⁻¹
[6]
  kcat/Km: 18000 M⁻¹ s⁻¹
[7]
  Km: 19 µM
  kcat: 270 s⁻¹
[8]
  Km: 180 µM
  kcat: 45 s⁻¹
[9]
  Km: 39 µM
  kcat: 190 s⁻¹
[10]
  Km: 26 µM
  kcat: 180 s⁻¹
[11]
  Km: 8.7 µM
  kcat: 47 s⁻¹
[12]
  Km: 240 µM
  kcat: 4.4 s⁻¹

B2: Beta-lactamase (Providencia stuartii), O69773 (protein)
chain: MDNSMKNIFRQGRLFIALSLAMTSISAFALTQQEVDDIIKPLMKQEQIPGMSVAISVNGKQAIYHYGVQSKQTQIPVSDRTLYEIGSLSKTFTATLATYAQIQGKLDFSQSVSHYLPELKGSAFDNVSVMNLATHTSGLSLFVPSDIKTNDQLMAYYQKWLPDNEVGQYRSYSNLGVGLLGIVTAKQLNMPFSQAMEKLMLPSLGLKHTYIHVPKSQEKYYAQGYNKQNQPVRLNLEILGPEAYGLKSNAKDLIRYLEINMQSIKVAKTWQEAIENTHTGVYLTDSFVQDMMWESYPWPVSLSQLLQGNRDDMALKPQKVELIKPAMAPEVRAYYNKTGSSNGFATYAIFIPEEKIAIVMLSNKWIPIPQRITATYQLLEKIER
[13]
  kcat/Km: 620 M⁻¹ s⁻¹
[14]
  kcat/Km: 3800 M⁻¹ s⁻¹
[15]
  kcat/Km: 580000 M⁻¹ s⁻¹
[16]
  kcat/Km: 250000 M⁻¹ s⁻¹
[17]
  kcat/Km: 7300 M⁻¹ s⁻¹
[18]
  Km: 260 µM
  kcat: 0.16 s⁻¹
[19]
  Km: 780 µM
  kcat: 3 s⁻¹
[20]
  Km: 920 µM
  kcat: 530 s⁻¹
[21]
  Km: 14 µM
  kcat: 3.3 s⁻¹
[22]
  Km: 26 µM
  kcat: 0.19 s⁻¹

B3: Class A carbapenemase KPC-2 (Escherichia coli), A8DS27 (protein)
chain: MSLYRRLVLLSCLSWPLAGFSATALTNLVAEPFAKLEQDFGGSIGVYAMDTGSGATVSYRAEERFPLCSSFKGFLAAAVLARSQQQAGLLDTPIRYGKNALVPWSPISEKYLTTGMTVAELSAAAVQYSDNAAANLLLKELGGPAGLTAFMRSIGDTTFRLDRWELELNSAIPGDARDTSSPRAVTESLQKLTLGSALAAPQRQQFVDWLKGNTTGNHRIRAAVPADWAVGDKTGTCGVYGTANDYAVVWPTGRAPIVLAVYTRAPNKDDKHSEAVIAAAARLALEGLGVNGQ
[23]
  kcat/Km: 320000 M⁻¹ s⁻¹
[24]
  kcat/Km: 22000 M⁻¹ s⁻¹
[25]
  kcat/Km: 770000 M⁻¹ s⁻¹
[26]
  kcat/Km: 2e+06 M⁻¹ s⁻¹
[27]
  kcat/Km: 1700 M⁻¹ s⁻¹
[28]
  Km: 340 µM
  kcat: 110 s⁻¹
[29]
  Km: 540 µM
  kcat: 12 s⁻¹
[30]
  Km: 510 µM
  kcat: 390 s⁻¹
[31]
  Km: 30 µM
  kcat: 60 s⁻¹
[32]
  Km: 230 µM
  kcat: 0.38 s⁻¹

B4: Beta-lactamase (Klebsiella oxytoca), Q8RT60 (protein)
chain: MIKSSWRKIAMLAAAVPLLLASGALWASTDAIHQKLTDLEKRSGGRLGVALINTADNSQILYRGDERFAMCSTSKVMAAAAVLKQSESNKEVVNKRLEINAADLVVWSPITEKHLQSGMTLAELSAATLQYSDNTAMNLIIGYLGGPEKVTAFARSIGDATFRLDRTEPTLNTAIPGDERDTSTPLAMAESLRKLTLGDALGEQQRAQLVTWLKGNTTGGQSIRAGLPESWVVGDKTGAGDYGTTNDIAVIWPEDHAPLILVTYFTQPQQDAKNRKEVLAAAAKIVTEGL
[33]
  kcat/Km: 7.2e+06 M⁻¹ s⁻¹
[34]
  kcat/Km: 59000 M⁻¹ s⁻¹
[35]
  kcat/Km: 7e+06 M⁻¹ s⁻¹
[36]
  kcat/Km: 160000 M⁻¹ s⁻¹
[37]
  kcat/Km: 2.8e+07 M⁻¹ s⁻¹
[38]
  kcat/Km: 130 M⁻¹ s⁻¹
[39]
  Km: 32 µM
  kcat: 230 s⁻¹
[40]
  Km: 1000 µM
  kcat: 59 s⁻¹
[41]
  Km: 100 µM
  kcat: 700 s⁻¹
[42]
  Km: 550 µM
  kcat: 88 s⁻¹
[43]
  Km: 40 µM
  kcat: 1100 s⁻¹
[44]
  Km: 140 µM
  kcat: 0.018 s⁻¹
